Here are results for one molecule from PMC7921785.

The series has as its target T1, rPcDp1 (recombinant Dp1) (Pseudosciaena crocea (large yellow …, UniProt D2CFQ6 1-412)).
T1 sequence: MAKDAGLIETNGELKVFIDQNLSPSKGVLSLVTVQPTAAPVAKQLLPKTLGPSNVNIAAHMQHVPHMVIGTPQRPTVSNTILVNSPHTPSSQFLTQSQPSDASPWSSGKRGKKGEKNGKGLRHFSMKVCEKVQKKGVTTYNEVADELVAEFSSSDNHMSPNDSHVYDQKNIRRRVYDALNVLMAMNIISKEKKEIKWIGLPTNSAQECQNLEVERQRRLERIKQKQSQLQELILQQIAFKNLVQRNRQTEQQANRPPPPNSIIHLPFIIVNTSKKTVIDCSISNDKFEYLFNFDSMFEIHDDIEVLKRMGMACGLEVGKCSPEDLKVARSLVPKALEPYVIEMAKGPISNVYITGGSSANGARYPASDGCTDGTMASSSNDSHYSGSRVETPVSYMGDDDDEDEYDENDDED
As to the kind of experiment: EMSA. For orientation: Mobility shift assays separate free from complexed probe on a gel.

B1: wE2F (WE2Fsite) (dsDNA)
DNA 1: GAGATGACGTAGTTTTCGCGCGAAACTAG
DNA 2: CTAGTTTCGCGCGAAAACTACGTCATCTC
As to B1, the binding result is recorded as “binds”.
